# According to patent US20250263469A1 (HOSPITAL FOR SICK CHILDREN, published 2025):
# Where a chain is given by its changes, count along the chain named.
# B1: 4A8 IgG (antibody, V domains shown)
# VH: EVQLVESGAEVKKPGASVKVSCKVSGYTLTELSMHWVRQAPGKGLEWMGGFDPEDGETMYAQKFQGRVTMTEDTSTDTAYMELSSLRSEDTAVYYCATSTAVAGTPDLFDYYYGMDVWGQGTTVTVSS
# VL: EIVMTQSPLSSPVTLGQPASISCRSSQSLVHSDGNTYLSWLQQRPGQPPRLLIYKISNRFSGVPDRFSGSGAGTDFTLKISRVEAEDVGVYYCTQATQFPYTFGQGTKVDIK
# B2: mAb 120 (antibody, V domains shown)
# VH: QVQLVQSGAEVKKPGASVKVSCKASGYTFTSYDINWVRQAPGQGLEWMGMIDPSGGSTSYAQKFQGRVTMTRDTSTSTVYMELSSLRSEDTAVYYCAKDFGGGTRYDYWYFDLWGRGTLVTVSS
# VL: EIVMTQSPATLSVSPGERATLSCRASQSVSSRYLAWYQQKPGQAPRLLIYGASTRATGIPARFSGSGSGTEFTLTISSLQSEDFAVYYCQQYYTTPRTFGQGTRLEIKR
# B3: mAb 52 (antibody, V domains shown)
# VH: QVQLVQSGAEVKKPGSSVKVSCKASGYTFTSYGISWVRQAPGQGLEWMGGIIPMFGTTNYAQKFQGRVTITADKSTSTAYMELSSLRSEDTAVYYCARDRGDTIDYWGQGTLVTVSS
# VL: DIQMTQSPSSLSASVGDRVTITCRASQGISNNLNWYQQKPGKAPKLLIYAASSLESGVPSRFSGSGSGTDFTLTISSLQPEDFATYYCQQGNGFPLTFGPGTKVDIKR
# B4: mAb 128 (antibody, V domains shown)
# VH: QVQLVQSGAEVKKPGASVKVSCKASGYTFTHYYMHWVRQAPGQGLEWMGIINPSSSSASYSQKFQGRVTMTRDTSTSTVYMELSSLRSEDTAVYYCARDGRYGSGSYPFDYWGQGTLVTVSS
# VL: DIQMTQSPSSLSASVGDRVTITCRASQNISRYLNWYQQKPGKAPKLLIYDASNLETGVPSRFSGSGSGTDFTLTISSLQPEDFATYYCQQANGFPPTFGQGTKLEIKR
# B5: mAb 56 (antibody, V domains shown)
# VH: QVQLVQSGAEVKKPGASVKVSCKASGYTFTSYGISWVRQAPGQGLEWMGWISAYNGNTNYAQKLQGRVTMTRDTSTSTVYMELSSLRSEDTAVYYCARDIGPIDYWGQGTLVTVSS
# VL: B4 VL with N28G, R31S, N34A, E55Q, T56S, G93S, P96S, L104V
# B6: mAb 158 (antibody, V domains shown)
# VH: QVQLVQSGAEVKKPGASVKVSCKASGYTFTGYYMHWVRQAPGQGLEWMGWINPLNGGTNFAPKFQGRVTMTRDTSTSTVYMELSSLRSEDTAVYYCARDPGGSYSNDAFDIWGQGTLVTVSS
# VL: B4 VL with N28S, T56S, G93S, P96L, Q100G, L104V, E105D
# B7: mAb 254 (antibody, V domains shown)
# VH: EVQLLESGGGLVQPGGSLRLSCAASGFTFSSSAMHWVRQAPGKGLEWVSAIGTGGDTYYADSVKGRFTISRDNSKNTLYLQMNSLRAEDTAVYYCAREGDGYNFYFDYWGQGTLVTVSS
# VL: DIQMTQSPSSLSASVGDRVTITCRASQGISSYLAWYQQKPGKAPKLLIYDASSLQIGVPSRFSGSGSGTDFTLTISSLQPEDFATYYCLQSYSTPPWTFGQGTKVEIKR
# B8: mAb 192 (antibody, V domains shown)
# VH: QVQLVQSGAEVKKPGSSVKVSCKASGGTFSSYAISWVRQAPGQGLEWMGWINPNSGGANYAQKFQGRVTITADESTSTAYMELSSLRSEDTAVYYCSTYYYDSSGYSTDYWGQGTLVTVSS
# VL: DIVMTQSPLSLPVTPGEPASISCRSSQSLLHSNGYNYLDWYLQKPGQSPQLLIYAASSLQSGVPDRFSGSGSGTDFTLKISRVEAEDVGVYYCMQALQTPYTFGQGTKLEIKR
# B9: mAb 180 (antibody, V domains shown)
# VH: QVQLVQSGAEVKKPGSSVKVSCKASGYTFTSYAMHWVRQAPGQGLEWMGRISPRSGGTKYAQRFQGRVTITADESTSTAYMELSSLRSEDTAVYYCAREAVAGTHPQAGDFDLWGRGTLVTVSS
# VL: B8 VL with M94Q, A96Y, L97Y, Q98S, T99S
# B10: mAb 178 (antibody, V domains shown)
# VH: QVQLVQSGAEVKKPGASVKVSCKASGYTFTDYHMHWVRQAPGQGLEWMGWINPNSGGTNYAQKFQGRVTMTRDTSTSTVYMELSSLRSEDTAVYYCARDISSWYEITKFDPWGQGTLVTVSS
# VL: EIVMTQSPATLSVSPGERATLSCKASQSVSGTYLAWYQQKPGQAPRLLIYGASTRATGIPARFSGSGSGTEFTLTISSLQSEDFAVYYCLQTHSYPPTFGQGTKVEIKR
# B11: mAb 236 (antibody, V domains shown)
# VH: QVQLVQSGAEVKKPGASVKVSCKASGGTFTSYGINWVRQAPGQGLEWMGWMNPNSGNTGYAQKFQGRVTMTRDTSTSTVYMELSSLRSEDTAVYYCASRGIQLLPRGMDVWGQGTTVTVSS
# VL: not shown
# B12: mAb 160 (antibody, V domains shown)
# VH: QVQLVQSGAEVKKPGASVKVSCKASGYTFTGHDMHWVRQAPGQGLEWMGIINPSGGSTSYAQKFQGRVTMTRDTSTSTVYMELSSLRSEDTAVYYCARANSLRYYYGMDVWGQGTMVTVSS
# VL: DIQMTQSPSSLSASVGDRVTITCRASQSVSSWLAWYQQKPGKAPKLLIYAASSLQSGVPSRFSGSGSGTDFTLTISSLQPEDFATYYCQQGYTTPYTFGQGTKLEIKR
# B13: mAb 108 (antibody, V domains shown)
# VH: QVQLVQSGAEVKKPGASVKVSCKASGYIFSRYAIHWVRQAPGQGLEWMGWMNPISGNTDYAPNFQGRVTMTRDTSTSTVYMELSSLRSEDTAVYYCAKDGSQLAYLVEYFQHWGQGTLVTVSS
# VL: DIQMTQSPSSLSASVGDRVTITCRASQVITNNLAWYQQKPGKAPKLLIYDASTLETGVPSRFSGSGSGTDFTLTISSLQPEDFATYYCQQSYTFPYTFGQGTKVEIKR
# B14: mAb 324 (antibody, V domains shown)
# VH: QVQLVQSGAEVKKPGASVKVSCKASGGTFNNYGISWVRQAPGQGLEWMGWMNPNSGNTGYAQKFQGRVTMTRDTSTSTVYMELSSLRSEDTAVYYCARVGDYGDYIVSPFDLWGRGTLVTVSS
# VL: B4 VL with N28S, S30T, R31T, A91S, N92Y, G93S, F94T, L104V
# B15: mAb 82 (antibody, V domains shown)
# VH: QVQLVQSGAEVKKPGASVKVSCKASGGSFSTSAFYWVRQAPGQGLEWMGWINPYTGGTNYAQKFQGRVTMTRDTSTSTVYMELSSLRSEDTAVYYCARSRALYGSGSYFDYWGQGTLVTVSS
# VL: B4 VL with N28V, R31N, N34A, A91S, N92F, G93S, F94P, K103R
# B16: mAb 46 (antibody, V domains shown)
# VH: EVQLLESGGGLVQPGRSLRLSCAASGFTFSSYAMSWVRQAPGKGLEWVSTIYSGGSTYYADSVKGRFTISRDNSKNTLYLQMNSLRAEDTAVYYCARGDSRDAFDIWGQGTMVTVSS
# VL: B13 VL with V28S, T30S, N31S, N32W, T53N, T93S, F94T, Y96F, Q100P, E105D
# B17: mAb 349 (antibody, V domains shown)
# VH: EVQLLESGGGLVQPGGSLRLSCAASGFTFSNYGMHWVRQAPGKGLEWVSGISSAGSITNYADSVKGRFTISRDNSKNTLYLQMNSLRAEDTAVYYCAGNHAGTTVTSEYFQHWGQGTLVTVSS
# VL: B12 VL with V29I, A50D, A51T, S53N, Q55E, S56T, G91S, Y96W, K103R
# B18: mAb 64 (antibody, V domains shown)
# VH: EVQLLESGGGLVQPGGSLRLSCAASGFPFSQHGMHWVRQAPGKGLEWVSAIDRSGSYIYYADSVKGRFTISRDNSKNTLYLQMNSLRAEDTAVYYCARDTYGGKVTYFDYWGQGTLVTVSS
# VL: B13 VL with V28G, T30S, N31S, N32H, T53N, S91T, T93S, F94T, Y96W
# B19: mAb 368 (antibody, V domains shown)
# VH: QVQLVQSGAEVKKPGSSVKVSCKASGYTFTSYDINWVRQAPGQGLEWMGAIMPMFGTANYAQKFQGRVTITADESTSTAYMELSSLRSEDTAVYYCARGSSGYYYGWGQGTLVTVSS
# VL: not shown
# Molecular target: T1, SARS-CoV-2 Spike on pseudotyped virus (PsV) (SARS-CoV-2, UniProt P0DTC2 14-1273)
# Assay: cell-based or functional assay
row,Binder,"Median IC50, SARS-CoV-2 PsV neutralization"
1,B1,> 100 g/mL as printed (µg/mL meant)

# Molecular target: T1, SARS-CoV-2 Spike on pseudotyped virus …
# Assay: cell-based or functional assay
# Remark: another data set of the same source
row,Binder,"Median IC50, SARS-CoV-2 PsV neutralization [µg/mL]"
1,B2,> 50
2,B3,0.61
3,B4,> 50
4,B5,> 50
5,B6,> 50
6,B7,> 50
7,B8,> 50
8,B9,> 50
9,B10,> 50
10,B11,0.057
11,B12,> 50
12,B13,> 50
13,B14,0.78
14,B15,1.6
15,B16,2.1
16,B17,> 50
17,B18,> 50
18,B19,> 50

# Molecular target: T1, SARS-CoV-2 Spike on pseudotyped virus …
# Assay: cell-based or functional assay
# Remark: another data set of the same source
row,Binder,"IC50 SARS-CoV2 PsV, IgG [µg/mL]"
1,B2,> 50
2,B3,0.55
3,B4,> 50
4,B5,> 50
5,B6,> 50
6,B7,> 50
7,B8,> 50
8,B9,> 50
9,B10,> 50
10,B11,0.057
11,B12,> 50
12,B13,> 50
13,B14,0.78
14,B15,1.6
15,B16,2.1
16,B17,> 50
17,B18,> 50
18,B19,> 50
